Measurements published in the Human Domainome abundance scans (Beltran et al. 2025).
± gives the uncertainty stated by the source.

B1: Unconventional myosin-Ie, residues 1051 to 1108; numbered along this chain, Q12965 (parent)
chain: PQVPQCKALYAYDAQDTDELSFNANDIIDIIKEDPSGWWTGRLRGKQGLFPNNYVTKI

Variants of: B1
Experiment: abundance fitness (aPCA) (normalised: wild type 0, dead -1); higher = more abundant; growth selection in yeast, the domain comes from the species named
Settings: Homo sapiens

Abundance fitness: each site, then its substitutions
L49: R 0.09 ± 0.05 | G -0.16 ± 0.046 | N -0.428 ± 0.11 | E -0.242 ± 0.057 | W -0.157 ± 0.062 | Q -0.151 ± 0.075 | A -0.236 ± 0.065 | T -0.288 ± 0.078 | D -0.319 ± 0.094 | K 0.036 ± 0.066 | C -0.025 ± 0.067 | V -0.015 ± 0.056 | P -0.656 ± 0.091 | I -0.219 ± 0.077 | H -0.317 ± 0.12
P51: Q -0.438 ± 0.14 | S -0.287 ± 0.075 | L -0.198 ± 0.057 | H -0.264 ± 0.15 | Y -0.425 ± 0.48 | F -0.302 ± 0.25 | W -0.143 ± 0.04 | V -0.94 ± 0.12 | K -0.18 ± 0.094 | E -0.674 ± 0.072 | D -0.114 ± 0.066 | A -0.341 ± 0.05 | G -0.771 ± 0.066 | M -0.484 ± 0.14 | R -0.026 ± 0.036 | C -0.316 ± 0.047
F50: T -1.08 ± 0.18 | K -1.07 ± 0.2 | M -0.31 ± 0.04 | E -0.911 ± 0.12 | Y -0.831 ± 0.28 | A -0.841 ± 0.11 | W -0.944 ± 0.14 | R -0.968 ± 0.12 | G -0.826 ± 0.088 | P -0.896 ± 0.33 | L -0.19 ± 0.058 | I 0.069 ± 0.076 | D -0.839 ± 0.26 | V -0.208 ± 0.049 | C -0.94 ± 0.42
Q47: L -0.194 ± 0.066 | C -0.236 ± 0.1 | N -0.507 ± 0.24 | H -0.149 ± 0.06 | M -0.169 ± 0.11 | V 0.041 ± 0.065 | R -0.099 ± 0.055 | E -0.066 ± 0.046 | I -0.216 ± 0.12 | T 0.005 ± 0.087 | K 0.007 ± 0.1 | S -0.16 ± 0.076 | P -0.32 ± 0.1 | A -0.222 ± 0.074 | D -0.417 ± 0.16 | F -0.167 ± 0.095 | G -0.451 ± 0.042 | W -0.111 ± 0.093 | Y 0.248 ± 0.15
R44: K -0.181 ± 0.096 | F -0.134 ± 0.096 | H -0.236 ± 0.12 | I -0.759 ± 0.25 | L -0.164 ± 0.049 | M -0.179 ± 0.057 | D -0.019 ± 0.073 | G -0.137 ± 0.06 | Q -0.071 ± 0.036 | V -0.19 ± 0.069 | A -0.074 ± 0.051 | N 0.068 ± 0.088 | S -0.08 ± 0.055 | W -0.467 ± 0.12 | E -0.319 ± 0.097 | C -0.139 ± 0.077
K46: M 0.054 ± 0.08 | R -0.01 ± 0.04 | C -0.099 ± 0.051 | G -0.411 ± 0.074 | H -0.172 ± 0.11 | L -0.152 ± 0.066 | S -0.073 ± 0.064 | W -0.569 ± 0.17 | F -0.364 ± 0.18 | D -0.33 ± 0.12 | P -0.715 ± 0.21 | T -0.146 ± 0.084 | Y -0.351 ± 0.19 | I -0.351 ± 0.11 | V -0.051 ± 0.063
G48: R -0.646 ± 0.081 | T -0.91 ± 0.082 | D -0.885 ± 0.27 | A -0.171 ± 0.093 | M -0.579 ± 0.39 | Q -0.826 ± 0.16 | K -0.718 ± 0.16 | V -0.756 ± 0.22 | N -0.626 ± 0.17 | L -0.399 ± 0.25 | C -0.477 ± 0.2 | W -0.609 ± 0.49 | F -0.598 ± 0.46
R42: P -0.897 ± 0.15 | Q -0.028 ± 0.038 | H -0.15 ± 0.1 | D -0.254 ± 0.072 | K 0.104 ± 0.076 | Y -0.366 ± 0.16 | W -0.06 ± 0.059 | G -0.125 ± 0.058 | M -0.394 ± 0.14 | N -0.005 ± 0.065 | F -0.193 ± 0.28 | I -0.356 ± 0.16 | A -0.013 ± 0.039 | L -0.161 ± 0.065 | E -0.049 ± 0.049 | T -0.114 ± 0.063
L43: A -0.123 ± 0.04 | N -0.331 ± 0.069 | I 0.062 ± 0.099 | C -0.267 ± 0.11 | T -0.113 ± 0.061 | M 0.101 ± 0.076 | K -0.453 ± 0.075 | F 0.014 ± 0.07 | V -0.063 ± 0.037 | R -0.417 ± 0.041 | W -0.706 ± 0.11 | S -0.269 ± 0.051 | G -0.762 ± 0.07 | Y -0.328 ± 0.08 | E -0.701 ± 0.068 | Q -0.621 ± 0.079
D34: F -0.332 ± 0.12 | K -0.445 ± 0.087 | R -0.173 ± 0.053 | N 0.014 ± 0.078 | L -0.3 ± 0.053 | I -0.939 ± 0.32 | T -0.123 ± 0.036 | P -0.15 ± 0.043 | A -0.031 ± 0.051 | H -0.264 ± 0.23 | G -0.118 ± 0.063 | S -0.126 ± 0.044 | Q -0.431 ± 0.092 | E 0.06 ± 0.06 | Y -0.27 ± 0.069
E33: D -0.271 ± 0.05 | M -0.02 ± 0.086 | C -0.231 ± 0.041 | P -0.751 ± 0.21 | L -0.343 ± 0.052 | V -0.26 ± 0.045 | W -0.819 ± 0.21 | Q 0.074 ± 0.087 | I -0.185 ± 0.054 | S -0.398 ± 0.045 | A -0.236 ± 0.042 | H -0.758 ± 0.45 | G -0.935 ± 0.14 | F -0.376 ± 0.17 | N -0.576 ± 0.049 | K -0.368 ± 0.14
T40: S -0.082 ± 0.05 | G -0.647 ± 0.086 | L -0.058 ± 0.041 | H -0.284 ± 0.16 | W -0.062 ± 0.051 | P -1.01 ± 0.071 | N -0.382 ± 0.11 | Q -0.075 ± 0.066 | M 0.052 ± 0.066 | A -0.175 ± 0.068 | R -0.123 ± 0.045 | F -0.479 ± 0.18 | I -0.059 ± 0.054 | E -0.203 ± 0.092 | Y -0.07 ± 0.041 | V 0.125 ± 0.075
G37: E -0.481 ± 0.049 | I -0.52 ± 0.24 | P -0.54 ± 0.095 | M -0.545 ± 0.12 | F -0.797 ± 0.31 | V -0.781 ± 0.041 | L -0.617 ± 0.095 | H -0.883 ± 0.21 | Q -0.448 ± 0.099 | K -0.728 ± 0.082 | T -0.375 ± 0.09 | C -0.584 ± 0.059 | R -0.574 ± 0.053 | Y -0.811 ± 0.26 | W -0.677 ± 0.13 | A -0.573 ± 0.043
G45: L -0.416 ± 0.038 | F -0.321 ± 0.11 | C -0.303 ± 0.086 | D -0.075 ± 0.076 | R -0.337 ± 0.043 | H -0.1 ± 0.07 | T -0.353 ± 0.088 | A -0.319 ± 0.07 | E -0.058 ± 0.035 | N 0.06 ± 0.08 | I -0.639 ± 0.21 | Q -0.149 ± 0.083 | P -0.977 ± 0.49 | V -0.762 ± 0.095 | M -0.161 ± 0.082 | W -0.702 ± 0.17
P35: V -0.085 ± 0.051 | Y -0.266 ± 0.1 | L -0.29 ± 0.065 | N -0.115 ± 0.058 | D -0.023 ± 0.051 | R -0.094 ± 0.04 | W -0.231 ± 0.05 | H -0.623 ± 0.24 | M -0.075 ± 0.072 | I -0.144 ± 0.081 | Q -0.018 ± 0.049 | A -0.07 ± 0.047 | C -0.066 ± 0.061 | K -0.027 ± 0.049 | S -0.022 ± 0.039 | F -0.329 ± 0.12 | G -0.021 ± 0.041
W39: A -0.374 ± 0.071 | R -0.902 ± 0.12 | G -0.453 ± 0.039 | P -0.559 ± 0.049 | C -0.316 ± 0.076 | S -0.138 ± 0.048 | H -0.732 ± 0.22 | N -0.352 ± 0.11 | Y -0.074 ± 0.082 | E -1 ± 0.22 | D -0.819 ± 0.15 | M -0.35 ± 0.13 | F -0.114 ± 0.13 | I -0.179 ± 0.061 | L -0.512 ± 0.08 | K -0.677 ± 0.32
G41: V -0.9 ± 0.15 | H -0.83 ± 0.28 | L -0.474 ± 0.18 | S -0.998 ± 0.12 | P -0.826 ± 0.18 | Q -0.767 ± 0.23 | R -0.906 ± 0.1 | N -0.87 ± 0.14 | F -0.756 ± 0.37 | K -1.03 ± 0.28 | Y -0.88 ± 0.45 | A -0.8 ± 0.045 | C -0.813 ± 0.059 | D -0.899 ± 0.11
S36: F -0.279 ± 0.064 | M -0.284 ± 0.19 | Q -0.024 ± 0.063 | G -0.031 ± 0.047 | R -0.073 ± 0.033 | Y -0.349 ± 0.093 | E -0.279 ± 0.065 | N -0.381 ± 0.12 | L -0.341 ± 0.05 | T -0.085 ± 0.043 | P -0.883 ± 0.18 | K 0.147 ± 0.071 | D -0.033 ± 0.039
K32: W -0.205 ± 0.069 | T -0.173 ± 0.074 | R -0.042 ± 0.037 | Q -0.139 ± 0.078 | V -0.119 ± 0.04 | Y -0.105 ± 0.082
Y54: M -0.16 ± 0.085 | N -0.657 ± 0.12 | K -0.158 ± 0.049 | D -0.949 ± 0.06 | F -0.243 ± 0.096 | G -0.713 ± 0.089 | I -0.296 ± 0.12 | L -0.04 ± 0.056 | C -0.087 ± 0.064 | E -0.97 ± 0.23 | H 0.038 ± 0.07 | A -0.055 ± 0.032
N52: G 0.02 ± 0.032 | T -0.087 ± 0.042 | Q -0.197 ± 0.096 | W -0.053 ± 0.041 | H -0.087 ± 0.1 | D -0.195 ± 0.08 | S 0.024 ± 0.048 | M -0.231 ± 0.055 | R -0.114 ± 0.06 | E 0.019 ± 0.062 | V -0.068 ± 0.047 | K -0.284 ± 0.14 | A 0.03 ± 0.049 | C -0.515 ± 0.23 | L -0.027 ± 0.048 | F 0.002 ± 0.031 | Y -0.209 ± 0.11 | I -0.123 ± 0.093
N53: E -0.078 ± 0.066 | A -0.147 ± 0.056 | Y -0.22 ± 0.1 | H -0.012 ± 0.078 | F 0.071 ± 0.1 | C -0.021 ± 0.054 | G -0.027 ± 0.043 | T -0.275 ± 0.097 | P -0.516 ± 0.12 | S -0.262 ± 0.052 | Q -0.07 ± 0.088 | L -0.188 ± 0.054 | W -0.151 ± 0.058 | M 0.075 ± 0.072 | D 0.016 ± 0.052 | K -0.066 ± 0.089 | V -0.176 ± 0.063
W38: L -0.211 ± 0.3
